Measurements as given in patent US20220356235A1 (STICHTING SANQUIN BLOEDVOORZIENING, published 2022).

Tests used:
[1] = target: T1, recombinant human FH fragment CCP 18-20 (human, UniProt P08603 1046-1231); test: SPR (Biacore T200), mAb captured on ProtA or ProtG chip, FH CCP18-20 flowed over, 1:1 model
T1 construct: domain: CCP 18-20; also called fragment of FH comprised of domain 18-20
T1 sequence (looked up): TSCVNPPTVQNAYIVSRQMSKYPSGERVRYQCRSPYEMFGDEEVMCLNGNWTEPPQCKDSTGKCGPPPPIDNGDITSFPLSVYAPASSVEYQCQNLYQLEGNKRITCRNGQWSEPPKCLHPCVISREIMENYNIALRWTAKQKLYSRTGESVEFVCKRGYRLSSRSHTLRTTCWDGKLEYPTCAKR
Description: (§1) Surface plasmon resonance (SPR) experiments were performed using a BiaCore T200 (GE Healthcare) and CM5 sensor chips (GE Healthcare) in accordance with the manufacturer's instructions. In short, to determine its affinity, anti-FH.07, anti-FHR-1 3B4 or anti-FHR-1 8E4 were captured onto a ProtA or ProtG coupled chip and either full length FH or a fragment of FH comprising domain 18-20 was flown over the captured moAB at decreasing concentrations.

[2] = target: T2, human factor H, full length (human, UniProt P08603 19-1231); test: SPR (Biacore T200), mAb captured on ProtA or ProtG chip, full length FH flowed over, 1:1 model
T2 construct: mature; In the serum assays (C3b deposition, hemolysis) the FH is that of normal human serum; also called FH; full length FH
Description: as §1

[3] = target: T2, human factor H, full length; test: cell-based or functional assay
[4] = target: T3, recombinant human FH fragment CCP 19-20 (human, UniProt P08603 1107-1231); test: competition ELISA: mAb captured on RM-19 coated plate, FH-bt mixed with unlabelled CCP 19-20
T3 construct: domain: CCP 19-20
T3 sequence (looked up): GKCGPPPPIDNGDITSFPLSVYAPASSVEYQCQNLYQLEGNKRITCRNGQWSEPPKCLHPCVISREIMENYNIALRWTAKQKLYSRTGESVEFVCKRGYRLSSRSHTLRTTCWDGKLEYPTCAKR
Description: The location of the epitope of anti-FHR-1 mAbs was determined using recombinant human FH fragments composed of multiple CCP domains (15-18, 15-19, 18-20 or 19-20). In short, anti-FHR-1 mAbs were captured on a RM-19 coated microtiterplate to assure optimal binding conformation. Next, biotinylated FH, mixed with a 100-fold higher concentration of the indicated unlabeled recombinant FH-fragments, was incubated on the plate for 1 hour. Binding of biotinylated FH was determined by incubation with 0.01% (v/v) streptavidin conjugated with poly-HRP, in HPE for 30 min. The ELISA was further developed as described above. To determine whether the anti-FHR-1 mAbs competed with anti-FH.07 for the binding of FH, a similar set-up was used. In short, mAbs were directly coated to the plate and binding of biotinylated FH (FH-bt) in the absence or presence of a 10-fold higher concentration of indicated mAbs was assessed by ELISA as described above.

[5] = target: T1, recombinant human FH fragment CCP 18-20; test: SPR, mAb captured, FH CCP18-20 flowed over (fuller figure of the value rounded to 0.03 × 10^-9 in Table 2)
Description: as §1

[6] = target: T4, C3b (UniProt P01024 23-667; P01024 749-1663, limits assumed); test: SPR, C3b amine-coupled to CM5 chip, FH (5-0.01953 µM) injected with 10 µM anti-FHR-1 8E4 Fab′, equilibrium analysis; FH with anti-FHR-1 8E4 Fab′
T4 construct: C3b has two chains (beta and alpha') derived from C3; also called purified C3b (Complement Technologies)
Description: (§2) Binding of FH to C3b in the presence of the anti-FH moAbs was determined by surface plasmon resonance using a Biacore T200 instrument (GE Healthcare, Little Chalfont, UK). Purified C3b (Complement Technologies) was immobilized onto a flow cell of a CM5 Biacore Sensor Chip (GE Healthcare) using standard amine coupling. The remaining flow cell was used as reference surface and prepared by performing a coupling reaction without the addition of any protein. A response of 2000 response units (RUs) was obtained after coupling with C3b. SPR experiments were performed at 37° C. using a flow rate of 10 μl/min and in phosphate buffered saline pH 7.4 (PBS, Orphi Farma) supplemented with 0.01% (w/v) Tween-20 (Merck) (PBS-T).
(§3) To determine the effect of the antibodies without interference of possible cross-linking via the moAb, recombinantly produced Fab′ fragments of the moAbs were used. Fab′ fragments were mixed with plasma purified FH (pdFH). […] Each Fab′ fragment was also injected without addition of FH to determine any interactions of the Fab′ fragments with the surfaces. The pdFH injection was followed by a dissociation of 60 seconds and surface was regenerated between each cycle by a single injection of 1 M NaCl (Merck).

[7] = target: T4, C3b; test: SPR on immobilised C3b, equilibrium analysis, FH with Fab′ against FH alone
Description: as §2, §3

[8] = target: T4, C3b; test: SPR on immobilised C3b, FH with Fab′ against FH alone
Description: as §2, §3

[9] = target: T4, C3b; test: SPR, C3b amine-coupled to CM5 chip, FH (5-0.01953 µM) injected with 10 µM anti-FH.07 Fab′, equilibrium analysis; FH with anti-FH.07 Fab′
Description: as §2, §3
(§4) Data was analyzed using Scrubber 2 (Biologic Software) affinities were determined by equilibrium analysis.

[10] = target: T4, C3b; test: SPR, C3b amine-coupled to CM5 chip, FH (5-0.01953 µM) injected with 10 µM anti-FHR-1 3B4 Fab′, equilibrium analysis; FH with anti-FHR-1 3B4 Fab′
Description: as §2, §3, §4

T4 sequence (P01024 23-667 limits assumed, chain 1 of 2): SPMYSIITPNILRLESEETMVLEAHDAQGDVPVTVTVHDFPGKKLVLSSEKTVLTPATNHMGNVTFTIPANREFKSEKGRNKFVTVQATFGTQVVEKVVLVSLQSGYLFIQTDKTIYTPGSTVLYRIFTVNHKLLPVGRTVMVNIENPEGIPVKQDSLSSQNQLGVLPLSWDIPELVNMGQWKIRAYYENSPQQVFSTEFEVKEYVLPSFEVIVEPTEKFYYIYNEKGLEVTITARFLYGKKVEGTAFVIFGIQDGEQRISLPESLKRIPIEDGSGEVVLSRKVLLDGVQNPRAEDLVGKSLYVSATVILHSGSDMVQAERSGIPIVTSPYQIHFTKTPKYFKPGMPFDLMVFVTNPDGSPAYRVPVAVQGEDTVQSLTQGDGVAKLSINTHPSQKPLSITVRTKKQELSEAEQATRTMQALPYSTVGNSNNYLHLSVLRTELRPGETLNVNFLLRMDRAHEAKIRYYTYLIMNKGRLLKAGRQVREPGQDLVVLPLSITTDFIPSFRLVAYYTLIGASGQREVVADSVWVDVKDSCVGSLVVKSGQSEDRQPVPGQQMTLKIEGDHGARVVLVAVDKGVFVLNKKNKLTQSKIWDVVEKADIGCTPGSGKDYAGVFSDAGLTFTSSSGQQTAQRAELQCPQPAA
T4 sequence (P01024 749-1663 limits assumed, chain 2 of 2): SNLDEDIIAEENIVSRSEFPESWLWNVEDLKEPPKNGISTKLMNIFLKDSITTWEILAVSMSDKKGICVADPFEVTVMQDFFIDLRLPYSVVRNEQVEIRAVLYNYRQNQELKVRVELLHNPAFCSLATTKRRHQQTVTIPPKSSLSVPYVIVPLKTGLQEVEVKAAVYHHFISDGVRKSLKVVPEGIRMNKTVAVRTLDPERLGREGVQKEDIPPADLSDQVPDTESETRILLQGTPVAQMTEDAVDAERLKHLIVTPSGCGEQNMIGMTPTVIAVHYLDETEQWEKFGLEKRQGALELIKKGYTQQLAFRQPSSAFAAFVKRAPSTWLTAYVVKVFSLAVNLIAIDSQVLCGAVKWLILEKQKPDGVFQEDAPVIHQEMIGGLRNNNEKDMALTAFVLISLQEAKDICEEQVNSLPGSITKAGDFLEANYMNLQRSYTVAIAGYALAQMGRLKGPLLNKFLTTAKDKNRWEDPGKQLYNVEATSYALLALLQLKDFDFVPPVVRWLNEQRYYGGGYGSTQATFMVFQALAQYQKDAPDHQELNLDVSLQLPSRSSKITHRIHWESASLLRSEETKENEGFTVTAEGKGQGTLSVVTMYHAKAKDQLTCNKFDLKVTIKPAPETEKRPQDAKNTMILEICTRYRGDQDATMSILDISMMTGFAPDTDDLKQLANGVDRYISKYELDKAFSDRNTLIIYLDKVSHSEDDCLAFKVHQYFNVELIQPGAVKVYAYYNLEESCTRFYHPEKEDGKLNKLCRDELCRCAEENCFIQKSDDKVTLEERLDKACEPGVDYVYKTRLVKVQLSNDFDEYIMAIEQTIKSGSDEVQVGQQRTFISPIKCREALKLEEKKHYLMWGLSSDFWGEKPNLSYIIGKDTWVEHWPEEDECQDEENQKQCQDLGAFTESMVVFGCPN

B1: anti-FHR-1.8E4 (antibody, V domains shown)
VH: QVQLKQSGPGLVQPSQSLSITCTVSDFSLTNSGVHWVRQSPGKGLEWLGVIWSGGTTEYNAAFMSRLTITKDNSKSQVFFKMNSLLVDDTGIYYCARNFGNYAVDYWGQGTSVTVSS
VL: QIVLSQSPAILSASPGEKVTMTCRASSSVRYMHWYQQKAGSSPTAWIFATSNLASGVPPRFSGSGSGTSYSLTISRVEAEDAATYYCQQWGTKPPTFGAGTKLELK
notes: Mouse monoclonal from a hybridoma, raised against recombinant human FHR-1; also called aFHR-1 8E4
Q: B1 was tested. Which Kd [1] did it give?
A: 0.03 nM

Q: And the koff [1]?
A: 4.96e-05 s⁻¹

Q: And the kon [1]?
A: 1.58e+06 M⁻¹ s⁻¹

Q: And the Kd [2]?
A: 10.4 nM

Q: What about the koff [2] of the same binder?
A: 9.39e-05 s⁻¹

Q: And the kon [2]?
A: 9000 M⁻¹ s⁻¹

Q: And the “IC50 (nM), Hemolytic assay” value [3]?
A: 128 nM

Q: And the “IC50 (nM), LPS C3b dep. assay” value [3]?
A: 26.3 nM

Q: Does B1 bind [4]?
A: no binding

Q: What about the Kd [5] of the same binder?
A: 0.0313 nM

B2: FH complexed with anti-FHR-1 8E4 Fab′ fragment (other, human)
chain: EDCNELPPRRNTEILTGSWSDQTYPEGTQAIYKCRPGYRSLGNVIMVCRKGEWVALNPLRKCQKRPCGHPGDTPFGTFTLTGGNVFEYGVKAVYTCNEGYQLLGEINYRECDTDGWTNDIPICEVVKCLPVTAPENGKIVSSAMEPDREYHFGQAVRFVCNSGYKIEGDEEMHCSDDGFWSKEKPKCVEISCKSPDVINGSPISQKIIYKENERFQYKCNMGYEYSERGDAVCTESGWRPLPSCEEKSCDNPYIPNGDYSPLRIKHRTGDEITYQCRNGFYPATRGNTAKCTSTGWIPAPRCTLKPCDYPDIKHGGLYHENMRRPYFPVAVGKYYSYYCDEHFETPSGSYWDHIHCTQDGWSPAVPCLRKCYFPYLENGYNQNYGRKFVQGKSIDVACHPGYALPKAQTTVTCMENGWSPTPRCIRVKTCSKSSIDIENGFISESQYTYALKEKAKYQCKLGYVTADGETSGSITCGKDGWSAQPTCIKSCDIPVFMNARTKNDFTWFKLNDTLDYECHDGYESNTGSTTGSIVCGYNGWSDLPICYERECELPKIDVHLVPDRKKDQYKVGEVLKFSCKPGFTIVGPNSVQCYHFGLSPDLPICKEQVQSCGPPPELLNGNVKEKTKEEYGHSEVVEYYCNPRFLMKGPNKIQCVDGEWTTLPVCIVEESTCGDIPELEHGWAQLSSPPYYYGDSVEFNCSESFTMIGHRSITCIHGVWTQLPQCVAIDKLKKCKSSNLIILEEHLKNKKEFDHNSNIRYRCRGKEGWIHTVCINGRWDPEVNCSMAQIQLCPPPPQIPNSHNMTTTLNYRDGEKVSVLCQENYLIQEGEEITCKDGRWQSIPLCVEKIPCSQPPQIEHGTINSSRSSQESYAHGTKLSYTCEGGFRISEENETTCYMGKWSSPPQCEGLPCKSPPEISHGVVAHMSDSYQYGEEVTYKCFEGFGIDGPAIAKCLGEKWSHPPSCIKTDCLSLPSFENAIPMGEKKDVYKAGEQVTYTCATYYKMDGASNVTCINSRWTGRPTCRDTSCVNPPTVQNAYIVSRQMSKYPSGERVRYQCRSPYEMFGDEEVMCLNGNWTEPPQCKDSTGKCGPPPPIDNGDITSFPLSVYAPASSVEYQCQNLYQLEGNKRITCRNGQWSEPPKCLHPCVISREIMENYNIALRWTAKQKLYSRTGESVEFVCKRGYRLSSRSHTLRTTCWDGKLEYPTCAKR
VH: B1 VH
VL: B1 VL
notes: mature; also called FH in presence of 10 µM anti-FHR-1 8E4 Fab′
Q: Which Kd [6] does the source give for B2 here?
A: 1660 nM

Q: And the “increase in affinity of FH for C3b against FH alone (times)” value [7]?
A: 3.6 times

Q: And the “fold increase of measured RU against FH alone” value [8]?
A: ≥ 2 fold

B3: FH complexed with anti-FH.07 Fab′ fragment (other, human)
chain: B2 chain
VH: QVQLQQSGPGLVQPSQSLSITCTVSDFSLARYGVHWIRQSPGKGLEWLGVIWSGGTADYNAAFISRLNINKDNSKSQVFFKMNSLQANDTAIYYCARNFGNYAVDYWGQGTS
VL: QIVLSQSPTFLSASPGEKVTVTCRASSSVKYMHWYQQKPGASPKPWIFATSNLASGVPARFSGSGSGTSYSLTISRVEAEDAATYYCQQWSIIPPTFGNGTKLELK
notes: mature; also called FH in presence of 10 µM anti-FH.07 Fab′
Q: What does the source list for B3?
A: increase in affinity of FH for C3b against FH alone (times) [7]: 2.7 times; fold increase of measured RU against FH alone [8]: ≥ 2 fold; Kd [9]: 2200 nM

B4: FH complexed with anti-FHR-1 3B4 Fab′ fragment (other, human)
chain: B2 chain
VH: QVQLRQSGPGLVQPSQSLSITCTVSGFSLTNYGVYWVRQSPGKGLEWLGVIWSGGTTDYSAAFISRLSISKDNSKSQVFFKMNSLQADDTAIYYCARNFGNYAMDYWGQGTSVTVSS
VL: QIVLSQSPTILSASPGEKVTMTCRASSSVTYMHWYQQKPGSSPKPWIYATSNLASGVPARFSGSGSGTSYSLTISRVEAEDAATYYCQQRSSSNPLTFGAGTKLELK
notes: mature; also called FH in presence of 10 µM anti-FHR-1 3B4 Fab′
Q: With B4 as the binder, how does the “increase in affinity of FH for C3b against FH alone (times)” value [7] read?
A: 3.2 times

Q: What about the “fold increase of measured RU against FH alone” value [8] of the same binder?
A: ≥ 2 fold

Q: What about the Kd [10] of the same binder?
A: 1900 nM
